Here are results for one molecule from paper PMC7617670, “Activity Regulation of a Glutamine Amidotransferase Bienzyme Complex by Substrate-Induced Subunit Interface Expansion” (ACS catalysis, 2025).

The assay deals with T1, PabB, synthase subunit of ADCS from Escherichia coli, as crystallized (His tag cleaved) (Escherichia coli, UniProt P05041 1-453).
T1 construct: PabB, synthase subunit of ADCS, E. coli; the gene was cloned into pET28a; Cho and Mg2+ in 8RP0; also called ADCS synthase subunit; source: E. coli BL21-Gold (DE3), purified (Ni-IMAC, TEV cleavage, reverse IMAC, preparative gel filtration); not shown: His6, N-terminal, cleaved
T1 sequence: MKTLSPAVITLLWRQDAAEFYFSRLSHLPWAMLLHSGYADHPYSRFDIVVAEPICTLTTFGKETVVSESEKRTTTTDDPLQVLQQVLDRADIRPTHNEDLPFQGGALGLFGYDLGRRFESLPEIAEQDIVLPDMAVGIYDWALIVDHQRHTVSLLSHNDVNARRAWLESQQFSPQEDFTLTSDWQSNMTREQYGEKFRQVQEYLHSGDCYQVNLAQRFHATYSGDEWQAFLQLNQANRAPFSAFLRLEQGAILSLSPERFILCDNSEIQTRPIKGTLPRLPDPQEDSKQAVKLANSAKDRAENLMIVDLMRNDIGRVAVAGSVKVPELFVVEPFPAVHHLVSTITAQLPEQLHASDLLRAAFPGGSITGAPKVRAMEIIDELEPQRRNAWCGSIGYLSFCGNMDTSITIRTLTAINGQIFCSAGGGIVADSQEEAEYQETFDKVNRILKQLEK
The assay can be described thus: crystal structure; ADCS heterodimer with Gln-TE on aC79; reservoir supplemented with 0.2 M L-Gln, with or without 14.4 mM Cho added afterwards; 0.1 M MES pH 6.5, 1.5 M magnesium sulfate, 18 °C. Conditions: both partners purified.

B1: PabA, glutaminase subunit of ADCS from Escherichia coli, as crystallized, with glutamyl thioester (Gln-TE) on aC79 (enzyme)
chain: MILLIDNYDSFTWNLYQYFCELGADVLVKRNDALTLADIDALKPQKIVISPGPCTPDEAGISLDVIRHYAGRLPILGVCLGHQAMAQAFGGKVVRAAKVMHGKTSPITHNGEGVFRGLANPLTVTRYHSLVVEPDSLPACFDVTAWSETREIMGIRHRQWDLEGVQFHPESILSEQGHQLLANFLHR
modifications: glutamyl thioester (Gln-TE) adduct covalently bound to the catalytic C79
notes: PabA, class I glutaminase subunit of ADCS, E. coli; the gene was cloned into pET28a; Same construct as m20; the adduct forms in one of the two heterodimers of the crystals grown with Gln; also called PabA with Gln-TE; source: E. coli BL21-Gold (DE3), purified (Ni-IMAC, TEV cleavage, reverse IMAC, preparative gel filtration); crystallized with 0.2 M L-Gln; not shown: His6, N-terminal, cleaved
Take B1: the binding result is on record as “binds”.
